According to patent publication US7626003B2, “Genetically engineered cDNA of rat bcl-x gene and an improved protein” (priority 1999, dated 2009):
Residue numbers refer to the chain shown, from its start.

Key:
[1] = system: human leukemia cell line Jurkat; test: Resistance of Jurkat transfectants to apoptosis induced by serum withdrawal (trypan blue exclusion); assay type: cell-based; conditions: serum-free RPMI1640, surviving cells counted daily (FIG. 3)
Protocol: The cells were washed 3 times with PBS and suspended in RPMI1640 medium containing no serum at 1×10^5 cells/ml. […] The number of the cells was carefully controlled to be less than 5×10^5 cells/ml. When the cell number was expected to exceed the limitation, the culture medium was diluted 2 fold. Every 3 days, the half of the serum-free medium was replaced with the fresh medium.

[2] = system: human leukemia cell line Jurkat; test: Resistance of Jurkat transfectants to anti-Fas antibody (trypan blue exclusion); assay type: cell-based; conditions: anti-Fas antibody CH-11 1-1000 ng/ml, 1 day (FIG. 4)
Protocol: The results are shown in FIG. 4, wherein the number of the cells incubated without the antibody was taken as 100%.

[3] = system: human leukemia cell line Jurkat; test: Resistance of Jurkat transfectants to heat treatment (trypan blue exclusion); assay type: cell-based; conditions: 45° C. for 10 minutes (FIG. 12)
[4] = system: human leukemia cell line Jurkat; test: Dehydrogenase activity of Jurkat transfectants after heat treatment (WST-1 assay); assay type: cell-based; conditions: 45° C. for 10 minutes, 1st day (FIG. 13)
Protocol: The cells were harvest by centrifugation, then suspended in an equal amount of the fresh culture medium, and incubated at 37° C. In addition, dehydrogenase activities of the cells (100 μl of the culture broth) were determined at 1st day using the Cell Counting Kit (Dojin Chemical) and WST-1 as a substrate (WST-1 Assay). The results are shown in FIG. 13, wherein the enzyme activity of the cells without heat treatment was taken as 100%.

[5] = system: murine premyeloid cell line FDC-P1; test: Resistance of FDC-P1 transfectants to TN-16 and staurosporine (WST-1 assay); assay type: cell-based; conditions: TN-16 50 μM
Protocol: (§1) For the transfectant FDC-P1bcl-xFNK cells prepared in Example 2, the resistance was examined to a variety of apoptosis-inducing stimuli. In these figures, the empty marks, ⋄, □, Δ, ∇, and ◯ represent 5 independent transfectants, FDC-P1bcl-xFNK-1, -2, -3, -4, and -5, respectively. […] The mark ▪ represents FDC-P1vec in which the empty vector plasmid DNA has been introduced.
The cells were suspended in culture medium at 2×10^5 cells/ml, to which TN-16 (50 μM) and staurosporine (10 nM) was then added. The dehydrogenase activity of the cells (100 μl of the culture broth) was determined daily using the Cell Counting Kit (Dojin Chemical) and WST-1 as a substrate (WST-1 Assay). The enzyme activity was taken as 100% immediately before addition of the agents.

[6] = system: murine premyeloid cell line FDC-P1; test: Resistance of FDC-P1 transfectants to apoptosis induced by depletion of the cytokine IL-3; assay type: cell-based
Excerpt: as §1
The result are shown in FIG. 16, in which the number of the surviving cells immediately after depletion of IL-3 was taken as 100%. In this experiment, the cells other than FDC-P1vec were diluted 5 times with the fresh medium containing no IL-3 every 3rd day.

[7] = system: Chinese hamster ovary cell CHO; test: Incubation of CHO transfectants in serum-free medium; assay type: cell-based
Protocol: The CHO cells (1×10^5 cells) were suspended in culture medium DMEM/F-12 (GIBCO BRL) containing 10% fetal bovine serum, and incubated in a 60-mm dish overnight. The linearized pEF1-BOSbcl-xY22F/Q26N/R165K (10 μg) and the linearized pST-neoB (0.5 μg) having a drug Geneticin-resistant gene were introduced into the CHO cells using a SuperFect Transfection Reagent kit (Qiagen). As a control, the linearized empty vector pEF1-BOS or the linearized pEF1-BOSbcl-x were introduced together with the linearized pST-neoB into the CHO cells. After the transfection treatment, the cells were incubated in culture medium DMEM/F-12 containing 10% fetal bovine serum overnight. Geneticin (700 μg/ml) was added, and the incubation was continued to yield the transfected cells. In the same manner as in Example 3, the transfectants expressing the improved protein Bcl-xFNK or the wild-type Bcl-xL abundantly and to the same level were selected. Thus, CHObcl-x, CHObcl-xFNK, and CHOvec (transfected with the empty vector) were obtained.
Three transfectants, CHObcl-x, CHObcl-xFNK, and CHOvec, prepared in Example 6 were incubated in culture medium DMEM/F-12 containing 10% fetal bovine serum. The cells (1×10^3 cells) were plated in a 100-mm dish containing the medium DMEM/F-12 containing 3% fetal bovine serum. […]

[8] = system: human leukemia cell line Jurkat
Protocol: For the transfected Jurkatbcl-xFNK cells prepared in Example 2, the resistance (non-sensitivity) to a variety of apoptosis-inducing stimuli was examined.
The cells were suspended in RPMI1640 medium at 1×10^5 cells/ml, to which staurosporine (20 nM), TN-16 (10 μM), camptothecin (10 μM), hydroxyurea (1 mM), trichostatin A (0.25 μg/ml), hydrogen peroxide (0.05 mM), or paraquat (1 mM) was then added. And the cells were incubated. The surviving cells were counted by the trypan blue exclusion everyday.

HeLa cells = test: Incorporation of TAT-Bcl-xFNK protein in cells (immunofluorescence); assay type: cell-based; conditions: 1 μM in medium, 24 hours, FITC immunofluorescence (FIG. 18)
Protocol: TAT-Bcl-xFNK protein (1 μM) was added to DMEM/F-12 (Life Technologies) containing 10% FBS (fetal bovine serum), a medium for HeLa cells cultured in a Slide Chamber (Lab-Tek), and the cells were incubated in a CO2 incubator for 24 hours. The cells were then washed twice with PBS. The cells were fixed with paraformaldehyde (4%) dissolved in PBS at room temperature for 45 min. The cells were washed 3 times with PBS (5 minutes/round), and incubated in PBS containing 10% FBS for 20 min. The cells were washed 3 times with PBS (5 minutes/round), and treated with 1.5% FBS-PBS solution containing an anti-rat Bcl-xL monoclonal antibody 35-32 (murine origin) for 30 min. The cells were washed 3 times with PBS (5 minutes/round), and treated with 1.5% FBS-PBS solution containing an anti-mouse IgG antibody conjugated with FITC, for 30 minutes. The cells were washed 3 times with PBS (5 minutes/round), mounted in PBS, and sealed to observe under a fluorescence microscope.

[9] = system: chondrocyte of cartilage slice from Osteoarthritis patients; test: Cell death-inhibiting activity in chondrocytes of cartilage slice culture; assay type: cell-based, human; conditions: 0.2 μM in culture medium, up to day 9, hematoxylin-eosin (FIGS. 19-24)
Protocol: Cartilage was obtained from the femoral bone head of Osteoarthritis patients undergoing total hip arthroplasty. The cartilage tissue above the subchondral bone (10×10 mm; 1.2 mm in thickness) was aseptically sliced using a single-edged razor. The cartilage slice was placed in a 24-well plate and incubated with a DMEM/Ham F-12 mixed medium (Life Technologies) containing 20% FBS (fetal bovine serum) at 37° C. in a CO2 incubator. For a comparative experiment, the expression vector of TAT-Bcl-xL was constructed in the same manner as TAT-Bcl-xFNK, and TAT-Bcl-xL protein was partially purified from Escherichia coli (TAT-Bcl-xL preparation has the same purity). TAT-Bcl-xFNK (prepared from the inclusion body) or TAT-Bcl-xL (prepared from the inclusion body) were added to the culture medium at a concentration of 0.2 μM. As a control, an equal amount of PBS (a solvent used to solubilize the proteins) containing 7M urea and 1 mM DTT was added. The culture medium containing the protein was changed on day 4 and day 7. After incubation for 4 days and 9 days, the cartilage slice was frozen to prepare frozen sections using a cryostat. The sections were stained with hematoxylin-eosin to evaluate the death of chondrocyte.

hepatocytes = test: Inhibition of the death of hepatocytes caused by steroid hormone (dexamethasone) in mice; assay type: in vivo; conditions: mouse, 100 μg intraperitoneal 3 hours before 0.5 mg dexamethasone i.p., liver sections 3 hours later (FIGS. 25-27)
Protocol: Three 8-week old mice ([…], 20 g body weight, female) were divided into 3 groups (A, B and C). To the mouse of Group A was intraperitonealy administered PBS solution (0.8 ml) containing 100 μg of TAT-Bcl-xFNK protein (prepared from the soluble fraction). To the mice of Group B and Group C (control) was intraperitonealy administered PBS (0.8 ml) in the same manner. The mice were put back into cages, and after a lapse of 3 hours 0.5 ml of 25% ethanol/PBS solution containing 0.5 mg of a steroid hormone (dexamethasone) was intraperitonealy administered to the mice of Group A and Group B. To the mouse of Group C was intraperitonealy administered 0.5 ml of 25% ethanol/PBS solution. They were put back into cages, and after a lapse of 3 hours killed. Their livers were taken out, and frozen to prepare frozen sections with a cryostat. The sections were stained with hematoxylin-eosin to evaluate the death of hepatocyte.

B1: Bcl-xFNK: improved protein of rat Bcl-xL, SEQ ID NO: 3, with substitutions Tyr22Phe; Gln26Asn; Arg165Lys (protein)
chain: MSQSNRELVVDFLSYKLSQKGFSWSNFSDVEENRTEAPEETEPERETPSAINGNPSWHLADSPAVNGATGHSSSLDAREVIPMAAVKQALREAGDEFELRYRRAFSDLTSQLHITPGTAYQSFEQVVNELFRDGVNWGRIVAFFSFGGALCVESVDKEMQVLVSKIASWMATYLNDHLEPWIQENGGWDTFVDLYGNNAAAESRKGQERFNRWFLTGMTVAGVVLLGSLFSRK
modifications: Artificial Sequence Modified Protein of SEQ ID NO 2
notes: Gln26Asn; Arg165Lys
survival of transfected cells after serum withdrawal [1]: survived for a longer period than the wild-type Bcl-xL-expressing cells
resistance of transfected cells to anti-Fas antibody [2]: high resistance to the highly concentrated anti-Fas antibody
resistance of transfected cells to heat treatment [3]: high resistance to heat treatment
dehydrogenase activity after heat treatment (WST-1) [4]: maintained at high level even after heat treatment
resistance of transfected cells to TN-16 and staurosporine ([5]; FDC-P1 transfectants (5 independent), staurosporine 10 nM (FIGS. 14, 15)): high resistance to treatment with TN-16 and staurosporine
dehydrogenase activity under TN-16 and staurosporine (WST-1) ([5]; FDC-P1 transfectants, staurosporine 10 nM, daily): maintained at high level
growth in the absence of IL-3 ([6]; medium without IL-3): could grow even in the absence of IL-3
resistance to apoptosis induced by depletion of IL-3 ([6]; medium without IL-3 but with serum (FIG. 16)): higher resistance than the transfectant expressing the wild-type Bcl-xL
growth of transfected CHO cells in serum-free medium ([7]; DMEM/F-12 lacking serum from day 6, another 6 days (FIG. 17)): grew far better than CHOvec
dying or dead cells in colonies in serum-free medium ([7]; compared with CHObcl-x expressing Bcl-xL (FIG. 17)): fewer cells were dying or dead
resistance of transfected cells to cytotoxic drugs [8]: high resistance to all of the cytotoxic drugs tested

B2: Bcl-xL: wild-type protein expressed from the rat bcl-x gene, SEQ ID NO: 2 (protein, listed as Rattus norvegicus)
chain: B1 chain with F22Y, N26Q, K165R
survival of transfected cells after serum withdrawal [1]: survived longer than the control parent cells and the vector-transfected cells

B3: TAT-Bcl-xFNK: Bcl-xFNK in which a protein-transduction-domain peptide of HIV TAT protein is fused at the N-terminal (protein)
chain: YGRKKRRQRRRMSQSNRELVVDFLSYKLSQKGFSWSNFSDVEENRTEAPEETEPERETPSAINGNPSWHLADSPAVNGATGHSSSLDAREVIPMAAVKQALREAGDEFELRYRRAFSDLTSQLHITPGTAYQSFEQVVNELFRDGVNWGRIVAFFSFGGALCVESVDKEMQVLVSKIASWMATYLNDHLEPWIQENGGWDTFVDLYGNNAAAESRKGQERFNRWFLTGMTVAGVVLLGSLFSRK
incorporation of the protein into cells (HeLa cells): has passed through the cellular membrane and has been incorporated in the cells
inhibition of the death of chondrocyte [9]: inhibits the death of chondrocyte more strongly than TAT-Bcl-xL
inhibition of degeneration of hepatic tissue and cell death caused by dexamethasone (hepatocytes): markedly inhibited
